# Assay results from patent US20230190867A1, “METHODS OF TREATING NASH AND COMPOSITIONS THEREFORE” (BIOINCEPT, LLC, priority 2018, published 2023).
# Columns and labels:
# [1] = target: 14-3-3 protein epsilon (Homo sapiens) (UniProt P62258); test: PIF-agarose affinity extraction of normal human liver lysate 1, LC-MS/MS
# [2] = target: Activated RNA polymerase II transcriptional coactivator p15 (Homo sapiens) (UniProt P53999); test: as above
# [3] = target: Alcohol dehydrogenase 1A (Homo sapiens) (UniProt P07327); test: as above
# [4] = target: Alcohol dehydrogenase 1B (Homo sapiens) (UniProt P00325); test: as above
# [5] = target: Cytosolic 10-formyltetrahydrofolate dehydrogenase (Homo sapiens) (UniProt O75891); test: as above
# [6] = target: Delta-aminolevulinic acid dehydratase (Homo sapiens) (UniProt P13716); test: as above
# [7] = target: Endoplasmin (Homo sapiens) (UniProt P14625); test: as above
# [8] = target: Enoyl-CoA hydratase domain-containing protein 2, mitochondrial (Homo sapiens) (UniProt Q86YB7); test: as above
# [9] = target: Hepatoma-derived growth factor (Homo sapiens) (UniProt P51858); test: as above
# [10] = target: Protein disulfide-isomerase (Homo sapiens) (UniProt P07237); test: as above
# [11] = target: Protein disulfide-isomerase A3 (Homo sapiens) (UniProt P30101); test: as above
# Vimentin (Homo sapiens) [12] = target: Vimentin (Homo sapiens) (UniProt P08670); test: as above
# [13] = target: 14-3-3 protein epsilon (Homo sapiens) (UniProt P62258); test: PIF-agarose affinity extraction of normal human liver lysate 2, LC-MS/MS
# [14] = target: 78 kDa glucose-regulated protein (Homo sapiens) (UniProt P11021); test: as above
# [15] = target: Activated RNA polymerase II transcriptional coactivator p15 (Homo sapiens) (UniProt P53999); test: as above
# [16] = target: Alcohol dehydrogenase 1A (Homo sapiens) (UniProt P07327); test: as above
# [17] = target: Alcohol dehydrogenase 1B (Homo sapiens) (UniProt P00325); test: as above
# [18] = target: Alcohol dehydrogenase 4 (Homo sapiens) (UniProt P08319); test: as above
# [19] = target: Alpha-actinin-4 (Homo sapiens) (UniProt O43707); test: as above
# [20] = target: Calmodulin (Homo sapiens) (UniProt P0DP23); test: as above
# [21] = target: Calreticulin (Homo sapiens) (UniProt P27797); test: as above
# [22] = target: Cytochrome b-c1 complex subunit 6, mitochondrial (Homo sapiens) (UniProt P07919); test: as above
# [23] = target: Cytochrome b5 (Homo sapiens) (UniProt P00167); test: as above
# [24] = target: Cytosolic 10-formyltetrahydrofolate dehydrogenase (Homo sapiens) (UniProt O75891); test: as above
# [25] = target: Delta-aminolevulinic acid dehydratase (Homo sapiens) (UniProt P13716); test: as above
# [26] = target: Endoplasmin (Homo sapiens) (UniProt P14625); test: as above
# [27] = target: Enoyl-CoA hydratase domain-containing protein 2, mitochondrial (Homo sapiens) (UniProt Q86YB7); test: as above
# [28] = target: Hepatoma-derived growth factor (Homo sapiens) (UniProt P51858); test: as above
# [29] = target: Membrane-associated progesterone receptor component 1 (Homo sapiens) (UniProt O00264); test: as above
# [30] = target: Parathymosin (Homo sapiens) (UniProt P20962); test: as above
# [31] = target: Peroxiredoxin-1 (Homo sapiens) (UniProt Q06830); test: as above
# [32] = target: Protein disulfide-isomerase (Homo sapiens) (UniProt P07237); test: as above
# [33] = target: Protein disulfide-isomerase A3 (Homo sapiens) (UniProt P30101); test: as above
# [34] = target: Protein disulfide-isomerase A4 (Homo sapiens) (UniProt P13667); test: as above
# [35] = target: Transitional endoplasmic reticulum ATPase (Homo sapiens) (UniProt P55072); test: as above
# [36] = target: Tropomyosin alpha-4 chain (Homo sapiens) (UniProt P67936); test: as above
# Vimentin (Homo sapiens) [37] = target: Vimentin (Homo sapiens) (UniProt P08670); test: as above
# Sequence of Delta-aminolevulinic acid dehydratase (Homo sapiens) (P13716 whole entry, stated change not applied): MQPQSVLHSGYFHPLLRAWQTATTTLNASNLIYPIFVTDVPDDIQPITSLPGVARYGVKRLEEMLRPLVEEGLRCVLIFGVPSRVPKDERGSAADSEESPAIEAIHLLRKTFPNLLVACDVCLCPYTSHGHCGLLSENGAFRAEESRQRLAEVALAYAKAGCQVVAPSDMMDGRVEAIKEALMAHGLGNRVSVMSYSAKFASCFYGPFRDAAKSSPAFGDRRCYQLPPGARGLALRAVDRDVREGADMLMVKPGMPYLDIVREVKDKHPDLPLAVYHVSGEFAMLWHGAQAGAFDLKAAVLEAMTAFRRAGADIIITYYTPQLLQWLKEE
# Sequence of Protein disulfide-isomerase A3 (Homo sapiens) (P30101 25-505 limits assumed): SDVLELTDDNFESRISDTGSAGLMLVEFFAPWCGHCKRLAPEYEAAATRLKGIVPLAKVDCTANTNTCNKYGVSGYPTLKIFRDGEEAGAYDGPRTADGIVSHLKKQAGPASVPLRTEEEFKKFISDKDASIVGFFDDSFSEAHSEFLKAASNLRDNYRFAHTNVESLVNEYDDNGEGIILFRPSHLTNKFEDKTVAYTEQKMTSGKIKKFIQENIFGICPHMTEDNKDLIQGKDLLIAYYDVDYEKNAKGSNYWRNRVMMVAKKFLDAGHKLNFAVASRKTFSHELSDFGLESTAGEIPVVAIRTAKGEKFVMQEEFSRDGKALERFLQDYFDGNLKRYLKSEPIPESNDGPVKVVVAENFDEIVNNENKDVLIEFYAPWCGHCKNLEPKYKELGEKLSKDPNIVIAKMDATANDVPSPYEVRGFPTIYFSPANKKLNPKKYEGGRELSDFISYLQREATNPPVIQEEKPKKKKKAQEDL
# Sequence of Hepatoma-derived growth factor (Homo sapiens) (P51858 whole entry): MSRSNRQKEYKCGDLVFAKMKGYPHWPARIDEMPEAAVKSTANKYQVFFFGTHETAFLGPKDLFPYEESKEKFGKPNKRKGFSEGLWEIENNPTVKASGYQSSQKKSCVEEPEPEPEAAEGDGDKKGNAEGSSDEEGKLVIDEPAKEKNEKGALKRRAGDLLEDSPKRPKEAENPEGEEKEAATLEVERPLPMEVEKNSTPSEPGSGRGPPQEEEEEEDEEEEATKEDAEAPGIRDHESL
# Sequence of Alcohol dehydrogenase 1B (Homo sapiens) (P00325 2-375 limits assumed): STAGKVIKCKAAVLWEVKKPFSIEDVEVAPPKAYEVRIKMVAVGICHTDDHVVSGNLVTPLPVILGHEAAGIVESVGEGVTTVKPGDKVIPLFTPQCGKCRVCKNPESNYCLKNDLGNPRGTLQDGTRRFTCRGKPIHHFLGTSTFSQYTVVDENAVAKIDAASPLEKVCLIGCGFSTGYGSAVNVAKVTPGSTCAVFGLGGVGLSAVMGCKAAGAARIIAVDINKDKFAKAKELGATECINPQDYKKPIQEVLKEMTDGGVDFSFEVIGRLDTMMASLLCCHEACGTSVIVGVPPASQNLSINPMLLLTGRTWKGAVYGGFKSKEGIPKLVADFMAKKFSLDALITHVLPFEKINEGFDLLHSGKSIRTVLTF
# Sequence of 14-3-3 protein epsilon (Homo sapiens) (P62258 whole entry): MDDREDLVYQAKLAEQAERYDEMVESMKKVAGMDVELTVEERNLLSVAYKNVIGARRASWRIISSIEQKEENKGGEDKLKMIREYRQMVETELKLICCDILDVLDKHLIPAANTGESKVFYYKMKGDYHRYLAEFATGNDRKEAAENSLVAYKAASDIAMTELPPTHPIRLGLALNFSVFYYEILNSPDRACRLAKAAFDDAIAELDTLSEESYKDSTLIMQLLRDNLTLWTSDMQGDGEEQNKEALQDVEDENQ
# Sequence of Cytosolic 10-formyltetrahydrofolate dehydrogenase (Homo sapiens) (O75891 whole entry): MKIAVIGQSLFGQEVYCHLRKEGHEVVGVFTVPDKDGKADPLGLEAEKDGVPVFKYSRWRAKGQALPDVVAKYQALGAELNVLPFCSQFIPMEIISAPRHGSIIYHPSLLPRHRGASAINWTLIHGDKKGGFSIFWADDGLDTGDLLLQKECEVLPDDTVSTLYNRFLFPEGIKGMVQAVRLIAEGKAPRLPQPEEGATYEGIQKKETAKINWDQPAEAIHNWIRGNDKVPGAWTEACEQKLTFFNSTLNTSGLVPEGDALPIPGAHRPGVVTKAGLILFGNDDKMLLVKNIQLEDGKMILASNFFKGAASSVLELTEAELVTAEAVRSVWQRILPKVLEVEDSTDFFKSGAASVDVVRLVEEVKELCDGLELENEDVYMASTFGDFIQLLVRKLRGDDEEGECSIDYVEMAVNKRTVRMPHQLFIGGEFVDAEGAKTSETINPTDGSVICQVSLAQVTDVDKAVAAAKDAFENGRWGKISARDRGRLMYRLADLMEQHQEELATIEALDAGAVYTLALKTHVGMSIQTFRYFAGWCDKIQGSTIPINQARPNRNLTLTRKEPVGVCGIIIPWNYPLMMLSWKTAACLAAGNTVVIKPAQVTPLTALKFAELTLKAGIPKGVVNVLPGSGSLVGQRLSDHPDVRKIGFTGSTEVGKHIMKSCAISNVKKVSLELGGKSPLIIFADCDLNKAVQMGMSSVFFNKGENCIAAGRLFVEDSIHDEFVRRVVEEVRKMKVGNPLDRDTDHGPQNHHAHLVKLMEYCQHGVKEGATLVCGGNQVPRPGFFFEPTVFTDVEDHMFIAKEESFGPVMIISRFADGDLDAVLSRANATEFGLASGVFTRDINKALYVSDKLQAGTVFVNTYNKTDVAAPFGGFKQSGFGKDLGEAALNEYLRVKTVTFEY
# Sequence of Enoyl-CoA hydratase domain-containing protein 2, mitochondrial (Homo sapiens) (Q86YB7 36-292 limits assumed): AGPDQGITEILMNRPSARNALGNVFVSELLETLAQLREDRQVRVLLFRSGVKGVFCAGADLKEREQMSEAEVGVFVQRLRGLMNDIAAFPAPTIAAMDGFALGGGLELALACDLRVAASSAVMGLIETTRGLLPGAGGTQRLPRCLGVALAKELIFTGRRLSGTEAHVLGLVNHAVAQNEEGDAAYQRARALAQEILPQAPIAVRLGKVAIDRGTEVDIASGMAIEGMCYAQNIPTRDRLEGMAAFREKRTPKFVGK
# Sequence of Endoplasmin (Homo sapiens) (P14625 22-803 limits assumed): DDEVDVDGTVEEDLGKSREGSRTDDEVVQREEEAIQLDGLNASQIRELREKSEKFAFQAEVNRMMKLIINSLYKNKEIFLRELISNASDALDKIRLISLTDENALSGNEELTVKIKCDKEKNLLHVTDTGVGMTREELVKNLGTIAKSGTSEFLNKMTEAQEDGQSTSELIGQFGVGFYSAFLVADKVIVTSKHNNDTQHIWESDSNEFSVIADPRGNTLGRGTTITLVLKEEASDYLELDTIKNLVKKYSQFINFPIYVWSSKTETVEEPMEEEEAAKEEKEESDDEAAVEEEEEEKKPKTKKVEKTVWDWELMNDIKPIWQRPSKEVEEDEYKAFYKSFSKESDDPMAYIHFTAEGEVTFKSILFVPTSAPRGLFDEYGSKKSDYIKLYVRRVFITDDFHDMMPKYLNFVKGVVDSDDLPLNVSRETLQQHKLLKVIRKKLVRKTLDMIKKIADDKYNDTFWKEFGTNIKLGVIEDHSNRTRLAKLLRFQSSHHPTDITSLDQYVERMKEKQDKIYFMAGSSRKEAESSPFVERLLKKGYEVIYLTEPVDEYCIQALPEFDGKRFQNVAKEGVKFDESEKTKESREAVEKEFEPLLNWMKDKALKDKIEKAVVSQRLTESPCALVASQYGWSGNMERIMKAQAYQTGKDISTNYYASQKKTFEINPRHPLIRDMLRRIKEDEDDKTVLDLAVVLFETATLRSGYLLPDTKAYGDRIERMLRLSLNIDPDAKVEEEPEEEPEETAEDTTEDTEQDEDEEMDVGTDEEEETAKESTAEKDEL
# Sequence of Protein disulfide-isomerase (Homo sapiens) (P07237 18-508 limits assumed): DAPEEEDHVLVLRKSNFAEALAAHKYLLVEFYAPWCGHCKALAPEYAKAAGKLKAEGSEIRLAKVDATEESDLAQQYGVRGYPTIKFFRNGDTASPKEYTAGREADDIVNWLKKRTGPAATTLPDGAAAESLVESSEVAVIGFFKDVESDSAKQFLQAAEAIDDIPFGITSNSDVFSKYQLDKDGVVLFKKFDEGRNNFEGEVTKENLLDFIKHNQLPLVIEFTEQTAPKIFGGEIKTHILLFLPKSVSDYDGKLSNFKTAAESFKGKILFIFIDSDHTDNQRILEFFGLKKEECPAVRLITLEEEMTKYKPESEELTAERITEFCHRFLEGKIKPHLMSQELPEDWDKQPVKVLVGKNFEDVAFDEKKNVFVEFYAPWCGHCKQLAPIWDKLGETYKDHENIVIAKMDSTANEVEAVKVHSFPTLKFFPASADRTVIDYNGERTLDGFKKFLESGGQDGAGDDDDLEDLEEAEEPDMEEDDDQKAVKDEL
# Sequence of Alcohol dehydrogenase 1A (Homo sapiens) (P07327 2-375 limits assumed): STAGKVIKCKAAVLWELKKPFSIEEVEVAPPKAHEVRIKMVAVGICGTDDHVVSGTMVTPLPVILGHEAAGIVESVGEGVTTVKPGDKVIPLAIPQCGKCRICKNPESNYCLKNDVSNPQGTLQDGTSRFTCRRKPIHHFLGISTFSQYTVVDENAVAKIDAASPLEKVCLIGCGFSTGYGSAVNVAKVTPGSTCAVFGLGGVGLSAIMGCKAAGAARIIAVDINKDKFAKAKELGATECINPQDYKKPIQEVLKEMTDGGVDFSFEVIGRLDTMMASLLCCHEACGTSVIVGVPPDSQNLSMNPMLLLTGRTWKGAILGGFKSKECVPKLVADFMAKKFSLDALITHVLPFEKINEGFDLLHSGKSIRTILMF
# Sequence of Vimentin (Homo sapiens) (P08670 2-466 limits assumed): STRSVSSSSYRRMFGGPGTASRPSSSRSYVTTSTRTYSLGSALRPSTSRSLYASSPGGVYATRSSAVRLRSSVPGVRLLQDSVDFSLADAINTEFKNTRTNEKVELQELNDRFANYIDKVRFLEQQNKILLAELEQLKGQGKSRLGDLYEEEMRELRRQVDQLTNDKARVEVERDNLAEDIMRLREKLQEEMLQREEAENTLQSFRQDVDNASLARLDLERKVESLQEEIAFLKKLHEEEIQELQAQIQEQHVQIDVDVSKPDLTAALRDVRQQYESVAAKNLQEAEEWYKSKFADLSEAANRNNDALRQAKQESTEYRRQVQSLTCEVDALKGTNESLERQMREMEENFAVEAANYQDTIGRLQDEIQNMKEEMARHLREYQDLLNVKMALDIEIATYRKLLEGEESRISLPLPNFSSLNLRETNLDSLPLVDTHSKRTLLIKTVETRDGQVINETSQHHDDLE
substance,measurement,setting,value
sPIF-1(15) (peptide),% Coverage of the unique peptides observed,[1],78%
same,% Coverage of the unique peptides observed,[2],45%
same,% Coverage of the unique peptides observed,[3],48%
same,% Coverage of the unique peptides observed,[4],47%
same,% Coverage of the unique peptides observed,[5],64%
same,% Coverage of the unique peptides observed,[6],47%
same,% Coverage of the unique peptides observed,[7],47%
same,% Coverage of the unique peptides observed,[8],45%
same,% Coverage of the unique peptides observed,[9],60%
same,% Coverage of the unique peptides observed,[10],76%
same,% Coverage of the unique peptides observed,[11],45%
same,% Coverage of the unique peptides observed,Vimentin (Homo sapiens) [12],50%
same,% Coverage of the unique peptides observed,[13],71%
same,% Coverage of the unique peptides observed,[14],51%
same,% Coverage of the unique peptides observed,[15],44%
same,% Coverage of the unique peptides observed,[16],53%
same,% Coverage of the unique peptides observed,[17],54%
same,% Coverage of the unique peptides observed,[18],52%
same,% Coverage of the unique peptides observed,[19],45%
same,% Coverage of the unique peptides observed,[20],46%
same,% Coverage of the unique peptides observed,[21],69%
same,% Coverage of the unique peptides observed,[22],53%
same,% Coverage of the unique peptides observed,[23],56%
same,% Coverage of the unique peptides observed,[24],34%
same,% Coverage of the unique peptides observed,[25],49%
same,% Coverage of the unique peptides observed,[26],45%
same,% Coverage of the unique peptides observed,[27],42%
same,% Coverage of the unique peptides observed,[28],56%
same,% Coverage of the unique peptides observed,[29],46%
same,% Coverage of the unique peptides observed,[30],48%
same,% Coverage of the unique peptides observed,[31],58%
same,% Coverage of the unique peptides observed,[32],76%
same,% Coverage of the unique peptides observed,[33],44%
same,% Coverage of the unique peptides observed,[34],52%
same,% Coverage of the unique peptides observed,[35],51%
same,% Coverage of the unique peptides observed,[36],48%
same,% Coverage of the unique peptides observed,Vimentin (Homo sapiens) [37],49%
